Reference: the supplement of paper PMC10126150
± gives the standard deviation of the averaged measurements.

Tested on: ATP
Experiment: switch fluorescence ratio, 500 uM ATP over buffer (Cy3 cluster intensity, sum of 5 cycles each) (fold (ratio)); higher = stronger signal-on switching upon ATP binding; sequences stand for … in TCGTCGGCAGCGTCAGATGTGTATAAGAGACAGTTTTTTTTTTTTTTTTTTTTTTTTT…TC
Details: aptamer strand: ATP DNA aptamer (quencher-CACCTGGGGGAGTATTGCGGAGGAAGG + anchor), 100 nM annealed; ATP concentration: 500 uM
Method in brief: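 Values give the fluorescence ratio for each switch-domain sequence, averaged from per-cluster ratios of summed target-cycle to summed buffer-cycle Cy3 intensity. The Cy3-labelled switching-strand clusters sat on a modified Illumina MiSeq flow-cell, were annealed to 100 nM quencher-labelled ATP aptamer, and were imaged in selection buffer, then after 15 min with 500 uM ATP at 22 °C. Five cycles ran with NaOH stripping and re-annealing between them, and clusters outside 100-1000 RFU were excluded.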
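Also: ATP exposure 15 min at 22 °C before imaging.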

Row | Sequence | switch fluorescence ratio
1 | ACGTCGCATT | 1.19 ± 0.035
2 | GACGTTTATG | 0.949 ± 0.099
3 | AAGGGAAAGG | 1 ± 0.013
4 | CAAGCGGGGG | 1.01 ± 0.05
5 | CTTAAAATGC | 1.66 ± 0.46
6 | GCTTCAGGTC | 1.05 ± 0.074
7 | GAAAAGATTA | 0.997 ± 0.028
8 | ATGTTTCTGG | 0.965 ± 0.011
9 | TTTTAACCTA | 1.01 ± 0.019
10 | TCGTATCGGG | 1 ± 0.034
11 | GGTATAGGGT | 0.981 ± 0.01
12 | CAGGACTTGC | 0.995 ± 0.03
13 | TTTTTGCGGT | 0.978 ± 0.025
14 | GATGTAGCTA | 1.033 ± 0.00083
15 | GGTCTTGCGA | 0.9755 ± 0.0078
16 | TTACTCGTCA | 0.989 ± 0.011
17 | AGGGGGAGAT | 1.02 ± 0.042
18 | CGGGGTTGGG | 1.01 ± 0.047
19 | TTGGGGATAT | 0.998 ± 0.039
20 | AGTTGTTGGT | 1.01 ± 0.014
21 | GGTAGGGAGC | 0.993 ± 0.055
22 | GCCGTTCTTA | 1.05 ± 0.037
23 | ACCGTAGGTG | 1.03 ± 0.034
24 | TCAAATCGGG | 0.999 ± 0.014
25 | ACTGTGTGGC | 0.992 ± 0.012

Row | Sequence | switch fluorescence ratio
26 | AGACTAGCCA | 0.981 ± 0.081
27 | ATCTGCGCGC | 0.992 ± 0.011
28 | AGTTTGACTC | 0.997 ± 0.026
29 | TTGGTGCGTT | 0.992 ± 0.018
30 | CCGAAAGCCG | 1.11 ± 0.024
31 | TATATGTAAT | 1.01 ± 0.038
32 | GTACTTTAAT | 1.034 ± 0.0036
33 | CATTATTTGG | 1.003 ± 0.002
34 | CGTTTTCTCG | 0.994 ± 0.027
35 | TCGTTGATGT | 1 ± 0.049
36 | TGTAATTGCT | 0.999 ± 0.022
37 | ATCCTACAGC | 1.1 ± 0.025
38 | TAAATGTGTA | 1.01 ± 0.036
39 | GGTATCGGTT | 0.992 ± 0.045
40 | GCGTACGTAG | 0.998 ± 0.019
41 | CCGCAGAGTG | 3.98 ± 2.1
42 | TCGACGTTGT | 1.1 ± 0.036
43 | ACTTTTTATA | 0.968 ± 0.082
44 | TTGTTTGGCT | 1.01 ± 0.015
45 | TCGGGGTTGT | 1.01 ± 0.087
46 | TTGGACTACT | 0.984 ± 0.035
47 | TTTTTAACGT | 1.02 ± 0.027
48 | CTGGACGCTG | 1.01 ± 0.017
49 | AGCTGAGGCT | 0.999 ± 0.015
50 | GTGAAAAGCA | 1.04 ± 0.014

Row | Sequence | switch fluorescence ratio
51 | TCCAGGTCGG | 1.2 ± 0.025
52 | TCTTATGGGG | 0.994 ± 0.019
53 | ATACTGAGGC | 0.999 ± 0.029
54 | TTGTCAGTTT | 1.03 ± 0.079
55 | GAAGTAGCGG | 1.018 ± 0.0084
56 | TGCTGGGGGT | 1.03 ± 0.068
57 | GTGGGGGGTG | 1.02 ± 0.057
58 | AATATTTTGT | 0.9833 ± 0.004
59 | TTCACGAGTG | 0.988 ± 0.052
60 | GCCTGTACTT | 0.9883 ± 0.0046
61 | TCAGACAGCG | 1.03 ± 0.053
62 | GATTGGTAGG | 0.981 ± 0.017
63 | TGGAGTACGG | 1.008 ± 0.0036
64 | CGTTATTTTT | 1.016 ± 0.0089
65 | CTTTTAGGGA | 0.989 ± 0.028
66 | TCAACTATTA | 0.977 ± 0.018
67 | AAAGCTCGTA | 1.06 ± 0.054
68 | GCTAAAGTTC | 1.01 ± 0.0014
69 | GCACCTATAT | 1.04 ± 0.039
70 | AATACAAGGC | 1.076 ± 0.006
71 | GGGTTAGAAG | 0.9797 ± 0.008
72 | ATTGTGGGGA | 0.985 ± 0.048
73 | TTTTGGCCGG | 1.05 ± 0.035
74 | TAATTGGTGT | 1.02 ± 0.043
75 | TCGAAGGGTT | 0.993 ± 0.028

Row | Sequence | switch fluorescence ratio
76 | TGCGACTGG | 0.9979 ± 0.0067
77 | GGGAACGTTT | 0.993 ± 0.011
78 | GGGACTATTT | 1.01 ± 0.013
79 | GTTGGACAGA | 1.03 ± 0.015
80 | GCACGCAACT | 1.32 ± 0.013
81 | TTAGGGGTGG | 0.996 ± 0.032
82 | AGTCCGATGC | 1.51 ± 0.17
83 | AATGATTGCG | 1 ± 0.039
84 | ATTGGCATCT | 0.9925 ± 0.0079
85 | CCTGAGGTTA | 1.03 ± 0.096
86 | ATTGTGTTCC | 1.05 ± 0.0057
87 | ATGATTTGGT | 0.983 ± 0.026
88 | AAGTCGTCGA | 1.028 ± 0.0025
89 | AAGGGTATGG | 0.9729 ± 0.0076
90 | CTGATACTGG | 0.997 ± 0.045
91 | GAGCAGATTG | 1.02 ± 0.036
92 | GAACTCCGGG | 1.1 ± 0.054
93 | GGGGGTGGGC | 1.03 ± 0.035
94 | GGTGGGAGGC | 0.999 ± 0.059
95 | AAATACGGGA | 1.17 ± 0.13
96 | ACCGGTACTC | 1.31 ± 0.047
97 | TTGTAGCCGT | 0.983 ± 0.029
98 | CGGGGCTTTG | 0.982 ± 0.025
99 | CGGGGGTAAG | 0.991 ± 0.027
100 | ACCTTCCGGG | 2.37 ± 0.084
